Assay results from PMC11381358, “Phosphorylation of the nuclear poly(A) binding protein (PABPN1) during mitosis protects mRNA from hyperadenylation and maintains transcriptome dynamics”.

Target: T1, His-MBP-PABPN1 WT (human, UniProt Q86U42 1-306)
T1 sequence: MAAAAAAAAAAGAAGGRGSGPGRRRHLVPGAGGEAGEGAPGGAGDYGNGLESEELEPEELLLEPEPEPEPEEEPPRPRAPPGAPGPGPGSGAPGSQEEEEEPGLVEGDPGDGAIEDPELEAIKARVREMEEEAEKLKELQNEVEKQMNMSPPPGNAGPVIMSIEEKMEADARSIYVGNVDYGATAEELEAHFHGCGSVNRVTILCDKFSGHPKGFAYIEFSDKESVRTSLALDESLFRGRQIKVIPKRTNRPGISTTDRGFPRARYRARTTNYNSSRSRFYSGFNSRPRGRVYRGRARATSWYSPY
Test: filter binding; 50 mM Tris-HCl pH 8.0, 100 mM KCl, 5 mM MgCl2, 2 mM EDTA, 10% glycerol, 0.2 mg/ml BSA, 0.01% NP-40, 0.5 mM DTT, 2 U/ul RNase OUT; 500 pM RNA, protein 62.5 nM-4
Details: protein: recombinant; tags: N-terminal His-MBP (uncleaved); label: 5'-32P; single strand

AAAAAAAAAAAAAAAAAAAAAAAAAAAAAA (ssRNA) [poly(A)30]: binds.
